According to patent US20070014817:

Legend:
[1] = tested on: Plasmodium berghei Apical Membrane Antigen 1 (PbAMA1)
[2] = tested on: Plasmodium berghei Merozoite Surface Protein 1, 42 kDa form (PbMSP1-42)

Substance “Plasmodium berghei subtilisin-like protease SUB2 (PbSUB2), TrimycDuoXpress (TmDX) epitope-tagged, as expressed in WT-TmDX1 and SPA-TmDX1 recombinant parasites” has a ratio of HSP70-corrected PbAMA1-CT15 maturation product, SPA-TmDX1 (PbSUB2 over-expressing) versus WT-TmDX1 merozoite extracts, Western blot, 6.5 x 10^7 parasites (fold (ratio of corrected amounts)) [1] of 9.7, a ratio of HSP70-corrected PbMSP1-19 maturation product, SPA-TmDX1 (PbSUB2 over-expressing) versus WT-TmDX1 merozoite extracts, Western blot, 1.3 x 10^6 parasites (fold (ratio of corrected amounts)) [2] of 2.9 and a ratio of HSP70-corrected PbMSP1-19 maturation product, SPA-TmDX1 (PbSUB2 over-expressing) versus WT-TmDX1 merozoite extracts, Western blot, 6.5 x 10^6 parasites (fold (ratio of corrected amounts)) [2] of 2.5. For the same substance, the ratio of HSP70-corrected PbMSP1-19 maturation product, SPA-TmDX1 (PbSUB2 over-expressing) versus WT-TmDX1 merozoite extracts, Western blot, 13 x 10^6 parasites (fold (ratio of corrected amounts)) [2] was 2.1.
